How the values were obtained:
[1] = target: SARS-CoV-2 S protein receptor-binding domain RBDv1 (319–541) with C-terminal c-myc and 6xHis tags (SARS-CoV-2) (UniProt P0DTC2); experiment: non-reducing SDS-PAGE with gel densitometry
[2] = target: SARS-CoV-2 S protein receptor-binding domain RBDv2 (320–537) with C-terminal c-myc and 10xHis tags (SARS-CoV-2) (UniProt P0DTC2); experiment: non-reducing SDS-PAGE with gel densitometry

SARS-CoV-2 S protein receptor-binding domain RBDv1 (319–541) with C-terminal c-myc and 6xHis tags (from UniProt P0DTC2 319-541) (domain or fragment)
stoichiometry N [1]: 2

SARS-CoV-2 S protein receptor-binding domain RBDv2 (320–537) with C-terminal c-myc and 10xHis tags (from UniProt P0DTC2 320-537) (domain or fragment)
percent covalent dimer [2]: 6% | stoichiometry N [2]: 2
